The record followed here is the supplement of paper PMC9170038.

This data set concerns K4 kissing-loop RNA reporter. Nature of the data set: apparent KD of K4 kissing-loop reporter; higher = weaker reporter binding. The following applies: Eterna round: R107. As to the method:
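RNA-MaP round R107: designed RNA switches with theophylline, tryptophan, arginine or FMN aptamers are transcribed on-chip within common flanks. They are titrated with a labelled K4 kissing-loop RNA reporter in RNA-MaP buffer (100 mM Tris pH 7.5, 80 mM KCl, 4 mM MgCl2), without ligand or with the indicated ligand. Median apparent KD per design.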

The mark [1] stands for this setting: input ligand: theophylline 20 uM.
Where [2] appears, read: input ligand: tryptophan 2.4 mM.
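Note: bound reporter read as fluorescence of individual clusters on recovered sequencing chips by microscopy, with normalized cluster intensities fitted with a binding model.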

As to “UGAUGUUUAGGUCACCCAGUGAUGUUGGAAGGAGCGUGCGAAAGCACAGGUAGGUCGCCAACCUAAAAGUGACCUGAGCAUCUAA [#SwitchBubble 8 #K4Early]”, the “apparent KD of K4 kissing-loop reporter” value (input ligand: FMN 200 uM) is 496 nM; the “apparent KD of K4 kissing-loop reporter” value (input ligand: arginine 13.2 mM) amounted to 210 nM; the “apparent KD of K4 kissing-loop reporter” value (input ligand: none) stood at 511 nM; the “apparent KD of K4 kissing-loop reporter” value under setting [1] was found to be 427 nM; the “apparent KD of K4 kissing-loop reporter” value under setting [2] stood at 846 nM.
Turning to “UGCAUCGUUGGCAGGCGCACCACACAGUGUAAGGAUAUGAUGUCGUUCAGAAGGUACGCUUGACCGAGUGAUGUUCGGGAGUGCC [theeternabot_sameState_KL_FMN_A_9]”, the “apparent KD of K4 kissing-loop reporter” value worked out at 224 nM (input ligand: FMN 200 uM); 200 nM (input ligand: arginine 13.2 mM); 218 nM (input ligand: none); 245 nM under setting [1]; 196 nM under setting [2].
“UGCCGCAAGGCGAGCGCUCCCACUCCGGAAGGAGCGCCCGUAAGGGCAGGUAGGUCGCCGGAGUGAUGUUCCGGUGGAGGGCUCG [#2 Exclusion - Arginine A Attempt #24 (Inspired by Omei)]”: the “apparent KD of K4 kissing-loop reporter” value reads like this: (input ligand: FMN 200 uM) 1270 nM; (input ligand: arginine 13.2 mM) 283 nM; (input ligand: none) 537 nM; under setting [1], 398 nM; under setting [2], 351 nM.
For “UGGACCAAGGAGUGAUGUUCCAAAUGUGAUACCAGCCACGAAAGUGGCCCUUGGCAGCACUGCCAAAGGACGAAAGUCCGGUCCU [#SwitchBubble 10 #StaticStem #K4Early]”, the “apparent KD of K4 kissing-loop reporter” value reads like this: (input ligand: FMN 200 uM) 371 nM; (input ligand: arginine 13.2 mM) 352 nM; (input ligand: none) 382 nM; under setting [1], 659 nM; under setting [2], 280 nM.
As for “UGGACCUGACUCGAUAAGAGUCAAAGGGAUACCAGCCACGAAAGUGGCCCUUGGCAGCUCUGCCAGUGAUGUUGGUCAAGGUCCU [#SwitchBubble 6 #StaticStem]”, the “apparent KD of K4 kissing-loop reporter” value (input ligand: FMN 200 uM) turned out to be 925 nM; the “apparent KD of K4 kissing-loop reporter” value (input ligand: arginine 13.2 mM) is 701 nM; the “apparent KD of K4 kissing-loop reporter” value (input ligand: none) is 1310 nM; the “apparent KD of K4 kissing-loop reporter” value under setting [1] was found to be 590 nM; the “apparent KD of K4 kissing-loop reporter” value under setting [2] came out at 854 nM.
In the case of “UGGACCUGACUCGAUAAGAGUCAAUGGGAUACCAGCCACGAAAGUGGCCCUUGGCAGCUCUACCAGUGAUGUUGGUCAAGGUCCU [#SwitchBubble 8 #StaticStem]”, the “apparent KD of K4 kissing-loop reporter” value runs as follows: (input ligand: FMN 200 uM) 1050 nM; (input ligand: arginine 13.2 mM) 511 nM; (input ligand: none) 860 nM; under setting [1], 716 nM; under setting [2], 899 nM.
As to “UGGAGGAGUGAUGUUCCCGAAACAUGAGAUACCAGCGUCACAGUCCGCCCUUGGCAGCUCGGUCCAAUUUGCCUCGCGGGUAAUG [theeternabot_sameState_KL_Theo_A_23]”, the “apparent KD of K4 kissing-loop reporter” value (input ligand: FMN 200 uM) worked out at 244 nM; the “apparent KD of K4 kissing-loop reporter” value (input ligand: arginine 13.2 mM) was determined as 251 nM; the “apparent KD of K4 kissing-loop reporter” value (input ligand: none) amounted to 299 nM; the “apparent KD of K4 kissing-loop reporter” value under setting [1] was determined as 257 nM; the “apparent KD of K4 kissing-loop reporter” value under setting [2] was determined as 182 nM.
As to “UGGAGUUGACGAAAAGUCAACUCCCGAGAAGGAGCGGACGAAAGUCCAGGUAGGUCGCUCGCUACCAGUGAUGUUGGUACAUAAA”, the “apparent KD of K4 kissing-loop reporter” value reads like this: (input ligand: FMN 200 uM) 101 nM; (input ligand: arginine 13.2 mM) 153 nM; (input ligand: none) 130 nM; under setting [1], 147 nM; under setting [2], 109 nM.
Turning to “UGGAGUUGACGAAAAGUCAACUCCUGAGAAGGAGCGGACGAAAGUCCAGGUAGGUCGCUCACUAGCAGUGAUGUUGCUACAUAAA [#OpenEnded 2]”, the “apparent KD of K4 kissing-loop reporter” value by setting is: (input ligand: FMN 200 uM) 202 nM; (input ligand: arginine 13.2 mM) 211 nM; (input ligand: none) 219 nM; under setting [1], 253 nM; under setting [2], 208 nM.
Taken in the same sequence, the figures for “UGGAGUUGACGAAAAGUCAACUCCUGAGAUACCAGUGACGAAAGUCACCCUUGGCAGCUCACUGCCAGUGAUGUUGGAAAUAAAA [#01 K4 Theophylline A Same State]” were 346 nM, 182 nM, 224 nM, 337 nM and 217 nM.
Turning to “UGGAGUUGACGAAAAGUCAACUCCUGAGAUACCAGUGACGAAAGUCACCCUUGGCAGCUCACUGCCAGUGAUGUUGGAAGAUAAA [whbob_SS_Theo_A_w46]”, the “apparent KD of K4 kissing-loop reporter” value reads like this: (input ligand: FMN 200 uM) 208 nM; (input ligand: arginine 13.2 mM) 149 nM; (input ligand: none) 438 nM; under setting [1], 289 nM; under setting [2], 585 nM.
Regarding “UGGAGUUGACGAAGAGUCAACUCCUGAGAUACCAGUGACGAAAGUCACCCUUGGCAGCUCUCUGCCAGUGAUGUUGGUUUAUAAG [#07 K4 Theophylline A Same State]”, the “apparent KD of K4 kissing-loop reporter” value amounted to 139 nM (input ligand: FMN 200 uM); 89.4 nM (input ligand: arginine 13.2 mM); 144 nM (input ligand: none); 177 nM under setting [1]; 117 nM under setting [2].
Taken in the same sequence, the figures for “UGGCGAGUGAUGUUCGUUGUUGUUGUGUGUCGAGGACCGGUACGGCCGCCACUCGAGUUGGUUGUUGUUGUUGCUGUUGUUGCUG [#04 K4 Tryptophan A Same State]” were 158 nM, 124 nM, 155 nM, 130 nM and 87.6 nM.
As for “UGGUCUGCACGAAGGAGCGCCCUGACAGGUUGCUGCCGUGGGCAGUGAUGUUGCUUAGUCCGGCAGGUAGGUCGCGUGCAGACCA”, the “apparent KD of K4 kissing-loop reporter” value came to 210 nM (input ligand: FMN 200 uM); 205 nM (input ligand: arginine 13.2 mM); 243 nM (input ligand: none); 189 nM under setting [1]; 170 nM under setting [2].
Take “UGGUUUAACUGAAGGAGCGGCAAUUGAUAAGUAAAUAUAGUGAUGUUAUAUAAGAUAGAGAGCCAGGUAGGUCGCAGAGGUAUUU [ExArgB.O]”: the “apparent KD of K4 kissing-loop reporter” value reads like this: (input ligand: FMN 200 uM) 145 nM; (input ligand: arginine 13.2 mM) 147 nM; (input ligand: none) 141 nM; under setting [1], 143 nM; under setting [2], 141 nM.
For the sequence “UGUACCGAAUCAGGAUAUGUCGUCGAAAGACGAAAUGGAGUGAUGUUCCUUAAACUGCGAAAGCAGACAGAAGGGAUUUGGUACU [FmnBS 29 A9+U77]”, the “apparent KD of K4 kissing-loop reporter” value (input ligand: FMN 200 uM) turned out to be 161 nM; the “apparent KD of K4 kissing-loop reporter” value (input ligand: arginine 13.2 mM) worked out at 386 nM; the “apparent KD of K4 kissing-loop reporter” value (input ligand: none) is 470 nM; the “apparent KD of K4 kissing-loop reporter” value under setting [1] amounted to 403 nM; the “apparent KD of K4 kissing-loop reporter” value under setting [2] stood at 385 nM.
The corresponding values for “UGUACCGAGUCAGGAUAUCAUAAAGUUGGAGUGAUGUUCCAAUAACGACUGACAAAGUCGGUCGAUUGAGAAGGGACUUGGUACU [FmnBS 9 #SwitchBubble #StaticStem]” are 160 nM, 139 nM, 141 nM, 143 nM and 151 nM.
